In patent US20030082682A1 (published 2003):

B1: ERb (receptor, UniProt Q92731 248-530, looked up)
chain: SGGHAPRVRELLLDALSPEQLVLTLLEAEPPHVLISRPSAPFTEASMMMSLTKLADKELVHMISWAKKIPGFVELSLFDQVRLLESCWMEVLMMGLMWRSIDHPGKLIFAPDLVLDRDEGKCVEGILEIFDMLLATTSRFRELKLQHKEYLCVKAMILLNSSMYPLVTATQDADSSRKLAHLLNAVTDALVWVIAKSGISSQQQSMRLANLLMLLSHVRHASNKGMEHLLNMKCKNVVPVYDLLLEMLNAHVLRGCKSSITGSECSPAEDSKSKEGSQNPQSQ
notes: Member of the panel of nuclear hormone receptors in the directed two-hybrid analysis; the construct is not described
B2: HNF4g (receptor, UniProt Q14541 99-408, looked up)
chain: SNIPSINTLAQAEVRSRQISVSSPGSSTDINVKKIASIGDVCESMKQQLLVLVEWAKYIPAFCELPLDDQVALLRAHAGEHLLLGATKRSMMYKDILLLGNNYVIHRNSCEVEISRVANRVLDELVRPFQEIQIDDNEYACLKAIVFFDPDAKGLSDPVKIKNMRFQVQIGLEDYINDRQYDSRGRFGELLLLLPTLQSITWQMIEQIQFVKLFGMVKIDNLLQEMLLGGASNDGSHLHHPMHPHLSQDPLTGQTILLGPMSTLVHADQISTPETPLPSPPQGSGQEQYKIAANQASVISHQHLSKQKQL
notes: as for B1
B3: PPARa (receptor, UniProt Q07869 167-468, looked up)
chain: SHNAIRFGRMPRSEKAKLKAEILTCEHDIEDSETADLKSLAKRIYEAYLKNFNMNKVKARVILSGKASNNPPFVIHDMETLCMAEKTLVAKLVANGIQNKEAEVRIFHCCQCTSVETVTELTEFAKAIPGFANLDLNDQVTLLKYGVYEAIFAMLSSVMNKDGMLVAYGNGFITREFLKSLRKPFCDIMEPKFDFAMKFNALELDDSDISLFVAAIICCGDRPGLLNVGHIEKMQEGIVHVLRLHLQSNHPDDIFLFPKLLQKMADLRQLVTEHAQLVQIIKKTESDAALHPLLQEIYRDMY
notes: as for B1
B4: PPARd (receptor, UniProt Q03181 139-441, looked up)
chain: SHNAIRFGRMPEAEKRKLVAGLTANEGSQYNPQVADLKAFSKHIYNAYLKNFNMTKKKARSILTGKASHTAPFVIHDIETLWQAEKGLVWKQLVNGLPPYKEISVHVFYRCQCTTVETVRELTEFAKSIPSFSSLFLNDQVTLLKYGVHEAIFAMLASIVNKDGLLVANGSGFVTREFLRSLRKPFSDIIEPKFEFAVKFNALELDDSDLALFIAAIILCGDRPGLMNVPRVEAIQDTILRALEFHLQANHPDAQYLFPKLLQKMADLRQLVTEHAQMMQRIKKTETETSLHPLLQEIYKDMY
notes: as for B1

Biological target: T1, RXR interacting protein, RB204 (human, UniProt O75064 240-1496, limits assumed)
T1 construct: Prey clone from a two-hybrid cDNA library (human bone and cartilage cells) in a vector derived from pJG4-5
T1 sequence: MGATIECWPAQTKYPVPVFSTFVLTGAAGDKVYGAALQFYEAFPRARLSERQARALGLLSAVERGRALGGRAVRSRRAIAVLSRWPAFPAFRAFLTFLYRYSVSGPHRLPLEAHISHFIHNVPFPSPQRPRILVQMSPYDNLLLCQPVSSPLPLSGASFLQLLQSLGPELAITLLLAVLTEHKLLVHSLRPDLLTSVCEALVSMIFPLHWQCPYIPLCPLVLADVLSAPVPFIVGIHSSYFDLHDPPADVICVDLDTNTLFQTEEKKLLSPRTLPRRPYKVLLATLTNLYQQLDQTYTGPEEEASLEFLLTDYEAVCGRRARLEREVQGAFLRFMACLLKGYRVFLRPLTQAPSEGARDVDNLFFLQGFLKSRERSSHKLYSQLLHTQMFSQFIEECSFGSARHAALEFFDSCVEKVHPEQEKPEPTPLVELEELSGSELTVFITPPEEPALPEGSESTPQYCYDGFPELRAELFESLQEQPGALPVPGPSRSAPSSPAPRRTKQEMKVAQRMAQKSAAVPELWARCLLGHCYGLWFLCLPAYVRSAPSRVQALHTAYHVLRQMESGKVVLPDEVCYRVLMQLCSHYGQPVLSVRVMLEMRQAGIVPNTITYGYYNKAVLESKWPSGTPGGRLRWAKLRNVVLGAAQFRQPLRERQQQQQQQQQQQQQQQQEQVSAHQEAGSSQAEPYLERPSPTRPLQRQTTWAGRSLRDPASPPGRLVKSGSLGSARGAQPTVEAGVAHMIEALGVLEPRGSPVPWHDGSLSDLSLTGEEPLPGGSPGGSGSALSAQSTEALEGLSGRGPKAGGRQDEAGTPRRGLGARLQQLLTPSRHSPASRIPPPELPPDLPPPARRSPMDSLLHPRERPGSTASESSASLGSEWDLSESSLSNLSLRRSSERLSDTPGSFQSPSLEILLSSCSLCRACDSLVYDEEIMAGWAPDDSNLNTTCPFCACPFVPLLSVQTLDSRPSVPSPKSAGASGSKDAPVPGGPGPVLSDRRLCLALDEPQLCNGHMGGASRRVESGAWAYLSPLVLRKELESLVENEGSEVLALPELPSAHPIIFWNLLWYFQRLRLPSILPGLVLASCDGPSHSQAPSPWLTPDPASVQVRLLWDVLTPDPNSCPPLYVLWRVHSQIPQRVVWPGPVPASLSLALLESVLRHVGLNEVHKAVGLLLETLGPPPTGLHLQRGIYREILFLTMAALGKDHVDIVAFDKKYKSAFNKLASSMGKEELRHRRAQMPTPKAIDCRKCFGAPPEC
Assay: two-hybrid, directed analysis against a panel of nuclear hormone receptors
Experimental: Screening was performed as per standard protocols (Golemis et al., Current protocols in molecular biology, 20.0.1,1999). […] RB204 interacts weakly with ERa in the presence of estradiol. Sequence analysis identified an LXXLL nuclear hormone interaction motif within the RB204 open reading frame.

Binder | binding result
B1 | no binding
B2 | no binding
B3 | no binding
B4 | no binding
